What was measured:
rhFcRn (R&D) [1] = molecular target: T1, rhFcRn (R&D) (human (printed as rhFcRn), UniProt P55899 24-297; P61769 21-119); assay: BLI Octet K2, antibody on FAB2G sensor, rhFcRn analyte (row of 50 nM), pH 6.0, 1:1 global fit
T1 construct: Bought reagent; also called neonatal Fc receptor; FcRn ligand
Experimental: (§1) Loaded biosensors were dipped (Association Step) into serial diluted FcRn (R&D systems) at 800, 200, 50 and 0 nanomolar concentrations for 240 seconds. Associated biosensors were dipped into phosphate assay buffer (PAB; 100 mM Sodium Phosphate, 150 mM NaCl, 0.05% Tween-20; pH 6.0) solution for 360 seconds (Dissociation Step). All steps including baseline, association and dissociation were performed in PAB at a pH of 6.0 to replicate the intracellular biology of the FcRn-Fc activity. A 1:1 Global curve fitting analysis was performed to determine kₐ, kdis, and KD across all concentrations of the FcRn analyte. The biphasic curve of dissociation was analyzed for the first 10 seconds only. Data analysis was performed using Octet Data Analysis software version 12.0.2.59. A Savitzky-Golay digital filter was used to remove high-frequency noise.

rhFcRn (R&D) [2] = molecular target: T1, rhFcRn (R&D); assay: BLI Octet K2, antibody on FAB2G sensor, rhFcRn analyte (row of 200 nM), pH 6.0, 1:1 global fit
Experimental: as §1

rhFcRn (R&D) [3] = molecular target: T1, rhFcRn (R&D); assay: BLI Octet K2, antibody on FAB2G sensor, rhFcRn analyte (row of 800 nM), pH 6.0, 1:1 global fit
Experimental: as §1

RFQ-VISTA-ECD-Fc = molecular target: T2, RFQ-VISTA-ECD-Fc (human); assay: ELISA, 10 ug/mL antibody on plate-bound mutant VISTA-Fc
T2 construct: also called hVISTA ECD-Fc R54A, F62A, Q63A; human VISTA-Fc 54A62A63A
Experimental: (§2) ELISA was used to measure antibody binding to wild-type and mutant VISTA essentially as described above. VISTA-Fc (5 μg/mL) was immobilized on Maxisorb 96-well ELISA plates and reacted with each antibody diluted to 10 μg/mL in a standard ELISA format. Binding data were reported as absorbance at 450 nm.

[4] = molecular target: T3, hVISTA ECD-Fc R54A, F62A, Q63A (human); assay: ELISA on immobilized VISTA-Fc (5 µg/mL), antibody at 10 µg/mL
T3 construct: also called human VISTA-Fc 54A62A63A; triple VISTA-Fc mutant
Experimental: as §2

B1: Antibody No. 150.1 (antibody, human IgG1, kappa)
heavy: QVQLQESGPGLVKPSETLSLTCTVSGGSISSYYWSWIRQPPGKGLEWIGYIYYSGSTNYNPSLKSRVTISVDTSKSQFSLKLSSVTAADTAVYYCARDIPAFAFDIWGQGTMVIVSSASTKGPSVFPLAPSSKSTSGGTAALGCLVKDYFPEPVTVSWNSGALTSGVHTFPAVLQSSGLYSLSSVVTVPSSSLGTQTYICNVNHKPSNTKVDKKVEPKSCDKTHTCPPCPAPELLGGPSVFLFPPKPKDTLYITREPEVTCVVVDVSHEDPEVKFNWYVDGVEVHNAKTKPREEQYNSTYRVVSVLTVLHQDWLNGKEYKCKVSNKALPAPIEKTISKAKGQPREPQVYTLPPSRDELTKNQVSLTCLVKGFYPSDIAVEWESNGQPENNYKTTPPVLDSDGSFFLYSKLTVDKSRWQQGNVFSCSVMHEALHNHYTQKSLSLSPGK
light: not shown
notes: Human IgG1 with the YTE mutations (M252Y, S254T, T256E, EU numbering), kappa light chain; It is left out here; copies: 2 + 2
**Q.** What does the source list for B1?
**A.** Kd (rhFcRn (R&D) [1]): 84.1 nM; koff (rhFcRn (R&D) [1]): 0.0192 s⁻¹; kon (rhFcRn (R&D) [1]): 228000 M⁻¹ s⁻¹; Kd (rhFcRn (R&D) [2]): 84.1 nM; koff (rhFcRn (R&D) [2]): 0.0192 s⁻¹; kon (rhFcRn (R&D) [2]): 228000 M⁻¹ s⁻¹; Kd (rhFcRn (R&D) [3]): 84.1 nM; koff (rhFcRn (R&D) [3]): 0.0192 s⁻¹; kon (rhFcRn (R&D) [3]): 228000 M⁻¹ s⁻¹

B2: Antibody No. 833.1 (antibody, human IgG1, kappa)
heavy: not shown
light: EIVLTQSPDFQSVTPKEKVTITCRASQSIGSSLHWYQQKPDQSPKLLIKYASQSISGVPSRFSGSGSGTDFTLTINSLEAEDAAAYYCHQSSSLPQTFGQGTKVEIKRTVAAPSVFIFPPSDEQLKSGTASVVCLLNNFYPREAKVQWKVDNALQSGNSQESVTEQDSKDSTYSLSSTLTLSKADYEKHKVYACEVTHQGLSSPVTKSFNRGEC
notes: human IgG1; also called Ab No. 833.1
**Q.** With B2 as the binder, how does the “ELISA Abs 450 nm” value (RFQ-VISTA-ECD-Fc) read?
**A.** The value was 1.56 Abs 450 nm.

B3: Antibody No. 269.1 (antibody, human IgG1, kappa)
light: EIVLTQSPDFQSVTPKEKVTITCRASQSIGSSLHWYQQKPDQSPKLLIKYASQSISGVPSRFSGSGSGTDFTLTINSLEAEDAAAYYCHQSSSLPQTFGQGTKVEIKRTVAAPSVFIFPPSDEQLKSGTASVVCLLNNFYPREAKVQWKVDNALQSGNSQESVTEQDSKDSTYSLSSTLTLSKADYEKHKVYACEVTHQGLSSPVTKSFNRGEC
heavy: not shown
**Q.** Does B3 bind [4]?
**A.** Result: binds

B4: Antibody No. 457.1 (antibody, human IgG1, kappa)
light: EIVLTQSPATLSLSPGERATLSCGASQSVSSNYLAWYQQKPGLAPRLLIYGASSRATGVPDRFSGSGSGTDFTLTISRLEPEDFAVYYCQQYGYSYTFGQGTKLEIKRTVAAPSVFIFPPSDEQLKSGTASVVCLLNNFYPREAKVQWKVDNALQSGNSQESVTEQDSKDSTYSLSSTLTLSKADYEKHKVYACEVTHQGLSSPVTKSFNRGEC
heavy: not shown
**Q.** Does B4 bind [4]?
**A.** Result: binds
